The series concerns the molecule itself. In words: SEC-MALS; RBP-CPN at 0.5, 1.0 and 5 mg ml^-1; Superdex 75 Increase 10/300 GL; 10 mM sodium phosphate pH 7.8, 50 mM sodium chloride, 0.02% sodium azide; room temperature; monomer to dimer. On the technique in general: SEC sorts molecules by how far they enter the pores of the column.

These results are taken from paper PMC9815098 (Acta Crystallographica. Section D, Structural Biology, 2023).

B1: RBP-CPN (permuted N-terminal lobe of the ribose-binding protein from Thermotoga maritima) (domain or fragment)
chain: MKGKMAIVISTLNNPWFVVLAETAKQRAEQLGYEATIFDSQNDTAKESAHFDAIIAAGYDAIIFNPTDADGSIANVKRAKEAGIPVFCVDRGINARGLAVAQIYSDTSTQFPKLMARLAVEWADQYLRGG
notes: residue printed between position 263 and the HHHHHH tag; source: E. coli BL21 (DE3), purified (IMAC, SEC)
On to B1, for which the “stoichiometry N” value stood at 2.

The stoichiometry N is a count of units in the complex or per binding partner.
